Experiments:
[1] = target: T1, cynomolgus CD3 epsilon, cell surface expressed (cynomolgus monkey PBMCs) (cynomolgus monkey, UniProt Q95LI5 22-198); experiment: flow cytometry on cynomolgus monkey PBMCs, IgG titration
T1 construct: On the cells CD3 epsilon is part of the native CD3/TCR complex; also called cyno CD3

[2] = target: T2, human CD3 epsilon, cell surface expressed (human PBMCs / human T cells) (human, UniProt P07766 23-207); experiment: flow cytometry (FACS) on human PBMCs
T2 construct: On the cells CD3 epsilon is part of the native CD3/TCR complex; also called CD3 on human PBMCs
Procedure: (§1) Antibody staining was measured using a multiformat Flow Cytometer (NovoCyte, Agilent Technologies) and analyzed using NovoExpress software (Version 1.5.0). Lymphocytes were identified by morphological gating of forward and side scatters. EC₅₀ values were calculated using 4-parameter non-linear regression analysis in Prism software (GraphPad Software Inc., version 8.4.3).

[3] = target: T1, cynomolgus CD3 epsilon, cell surface …; experiment: flow cytometry (FACS) on cynomolgus PBMCs
Procedure: as §1

[4] = target: T3, Mature human CD3e(1-118)_FLAG-chLys_Avi (human); experiment: BLI (Octet HTX); FabCys captured on Fab-specific sensor, CD3e antigen as analyte; 1:1 model
T3 construct: also called human CD3 epsilon antigen
Procedure: (§2) Affinity determination by determining kinetic rate constants was performed on an Octet HTX (FortéBIO, Sartorius AG) instrument as described below.
(§3) The different Fab-Cys samples diluted in assay buffer (D-PBS, 0.05% (v/v) PS 20, 0.1% (w/v) BSA) were captured onto Fab-specific BLI sensors with a loading level of approx. 0.5 nm. […] A blank sample with assay buffer was included for referencing, i.e. correcting for dissociation of captured antibody. The association phase was recorded for 300 s, followed by a dissociation phase of 900 s. After each cycle, the biosensors were regenerated two times with 10 mM Glycine HCl pH 1.7 to remove bound ligand/antibody complex, while maintaining the integrity of the capture surface. Between regeneration steps, biosensors were washed with assay buffer for 20 s.
(§4) The sensorgrams were fitted using Octet Data Analysis Software 10.0 (FortéBio, Sartorius AG) to determine kₒₙ and koff rate constants (using a 1:1 binding model), which were used to calculate KD.

[5] = target: T4, cyCD3e(1-109)_F-chLys_avi (cynomolgus monkey); experiment: as above
T4 construct: also called cynomolgus monkey CD3 epsilon antigen
Procedure: as §2, §3, §4

[6] = target: T4, cyCD3e(1-109)_F-chLys_avi; experiment: BLI (Octet HTX); FabCys captured on Fab-specific sensor, CD3e antigen as analyte; 1:1 model; dissociation approaching assay limit
Procedure: as §2, §3, §4

[7] = target: T4, cyCD3e(1-109)_F-chLys_avi; experiment: BLI (Octet HTX); FabCys captured on Fab-specific sensor, CD3e antigen as analyte; 1:1 model; less precise, dissociation at assay limit
Procedure: as §2, §3, §4

[8] = target: T4, cyCD3e(1-109)_F-chLys_avi; experiment: BLI (Octet HTX); FabCys captured on Fab-specific sensor, CD3e antigen as analyte; 1:1 model; rate set to assay limit
Procedure: as §2, §3, §4

T1 sequence (Q95LI5 22-198 limits assumed): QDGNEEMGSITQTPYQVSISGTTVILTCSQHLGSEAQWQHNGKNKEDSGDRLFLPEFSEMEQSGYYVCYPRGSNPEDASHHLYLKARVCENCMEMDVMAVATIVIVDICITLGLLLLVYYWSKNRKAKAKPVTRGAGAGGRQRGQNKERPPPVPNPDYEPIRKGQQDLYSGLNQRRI
T2 sequence (P07766 23-207 limits assumed): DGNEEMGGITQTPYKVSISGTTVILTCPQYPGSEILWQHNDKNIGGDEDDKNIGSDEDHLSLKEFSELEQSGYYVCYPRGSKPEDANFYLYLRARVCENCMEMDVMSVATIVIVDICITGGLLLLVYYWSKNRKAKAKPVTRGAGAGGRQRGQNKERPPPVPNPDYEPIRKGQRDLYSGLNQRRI
T4 sequence (chain, as listed by the source limits assumed): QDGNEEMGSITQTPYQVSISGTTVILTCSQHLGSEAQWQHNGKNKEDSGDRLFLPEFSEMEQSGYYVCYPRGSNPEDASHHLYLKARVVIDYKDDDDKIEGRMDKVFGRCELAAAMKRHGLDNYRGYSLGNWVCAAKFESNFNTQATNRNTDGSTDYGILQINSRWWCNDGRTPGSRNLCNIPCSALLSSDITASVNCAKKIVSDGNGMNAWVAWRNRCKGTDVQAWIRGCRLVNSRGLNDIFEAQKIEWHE
T3 sequence (chain, as listed by the source limits assumed): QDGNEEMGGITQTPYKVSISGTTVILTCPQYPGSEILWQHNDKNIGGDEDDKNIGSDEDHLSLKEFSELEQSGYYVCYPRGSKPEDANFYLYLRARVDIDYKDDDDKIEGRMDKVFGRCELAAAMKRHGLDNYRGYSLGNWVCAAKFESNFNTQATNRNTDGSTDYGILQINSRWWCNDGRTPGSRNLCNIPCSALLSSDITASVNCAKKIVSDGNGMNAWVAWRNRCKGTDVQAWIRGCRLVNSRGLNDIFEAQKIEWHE

B1: MAB-1 (parental) (antibody, V domains shown)
VH: EVQLVESGGGLVQPGGSLRLSCAASGFTFSSYWMSWVRQAPGKGLEWVANIKQDGSEKYYVDSVKGRFTISRDNAKNSLYLQMNSLRAEDTAVYYCARGYSAEFAHRSGLDVWGQGTLVTVSS
VL: QSVLTQPPSASGTPGQRVTISCSGSSSNIGSNYVYWYQQLPGTAPKLLIYRNNQRPSGVPDRFSGSKSGTSASLAISGLRSEDEADYYCAAWDHHRSGAVFGGGTKLTVLG
notes: also called MAB-1 IgG; parental antibody MAB-1
Does B1 bind [1]?
Result: binds

B2: MAB-8_h_FabCys (Fab, V domains shown)
VH: EVQLVESGGGLVQPGGSLRLSCAASGFTFRSHYMTWVRQAPGKGLEWVANIDYEGTRTYYAESVKGRFTISRDNAKNSLYLQMNSLRAEDTAVYYCARGYSAEFAHRSGLDVWGQGTLVTVSS
VL: QSVLTQPPSASGTPGQRVTISCSGSSSNIGSNYVYWYQQLPGTAPKLLIYRNNQRPSGVPDRFSGSKSGTSASLAISGLRSEDEADYYCAAWDRHSHGAVFGGGTKLTVLG
notes: Tagless disulfide-bridged human FabCys produced in HEK293 cells; also called MAB-8 Fab-Cys
Which results are given for B2?
EC50 [2]: 5.5 nM; EC50 [3]: 3.2 nM; Kd [4]: 0.3 nM; koff [4]: 0.000258 s⁻¹; kon [4]: 802000 M⁻¹ s⁻¹; kon [5]: 464000 M⁻¹ s⁻¹; koff [6]: ~5.07e-05 s⁻¹; Kd [7]: ~0.1 nM

B3: MAB-16_h_FabCys (Fab, V domains shown)
VH: EVQLVESGGGLVQPGGSLRLSCAASGFTFRSHYMTWVRQAPGKGLEWVANIDYEGTRTYYAESVKGRFTISRDNAKNSLYLQMNSLRAEDTAVYYCARGYSAEFAHRSGLDVWGQGTLVTVSS
VL: QSVLTQPPSASGTPGQRVTISCSGSSSNIGSNYVYWYQQLPGTAPKLLIYRNNQRPSGVPDRFSGSKSGTSASLAISGLRSEDEADYYCAGWDRRLHGAVFGGGTKLTVLG
notes: Tagless disulfide-bridged human FabCys produced in HEK293 cells; also called MAB-16 Fab-Cys
Which EC50 [2] does the source give for B3 here?
The EC50 was 3.3 nM.

And the EC50 [3]?
The EC50 was 2 nM.

What about the Kd [4] of the same binder?
Its Kd is 0.3 nM.

What about the koff [4] of the same binder?
The koff was 0.000272 s⁻¹.

And the kon [4]?
Its kon is 852000 M⁻¹ s⁻¹.

What about the Kd [5] of the same binder?
The Kd was 0.2 nM.

What about the koff [5] of the same binder?
Its koff is 7.92e-05 s⁻¹.

What about the kon [5] of the same binder?
The kon was 478000 M⁻¹ s⁻¹.

B4: MAB-12_h_FabCys (Fab, V domains shown)
VH: EVQLVESGGGLVQPGGSLRLSCAASGFTFRSHYMTWVRQAPGKGLEWVANIDYEGTRTYYAESVKGRFTISRDNAKNSLYLQMNSLRAEDTAVYYCARGYSAEFAHRSGLDVWGQGTLVTVSS
VL: QSVLTQPPSASGTPGQRVTISCSGSSSNIGANYVYWYQQLPGTAPKLLIYRNNQRPSGVPDRFSGSKSGTSASLAISGLRSEDEADYYCAAWDRHSHGAVFGGGTKLTVLG
notes: Tagless disulfide-bridged human FabCys produced in HEK293 cells; also called MAB-12 Fab-Cys
B4 was tested. Which EC50 [2] did it give?
Its EC50 is 5.7 nM.

What about the EC50 [3] of the same binder?
Its EC50 is 4.1 nM.

And the Kd [4]?
Its Kd is 0.3 nM.

And the koff [4]?
The koff was 0.000188 s⁻¹.

What about the kon [4] of the same binder?
The kon was 650000 M⁻¹ s⁻¹.

And the kon [5]?
Its kon is 445000 M⁻¹ s⁻¹.

And the koff [8]?
Its koff is at most 5e-05 s⁻¹.

What about the Kd [7] of the same binder?
Its Kd is at most 0.1 nM.

B5: MAB-7_h_FabCys (Fab, V domains shown)
VH: EVQLVESGGGLVQPGGSLRLSCAASGFTFKSYYMSWVRQAPGKGLEWVANIDYQSQHAYYAESVKGRFTISRDNAKNSLYLQMNSLRAEDTAVYYCARGYSAEFAHRSGLDVWGQGTLVTVSS
VL: QSVLTQPPSASGTPGQRVTISCSGSSSNIGSNYVYWYQQLPGTAPKLLIYRNNQRPSGVPDRFSGSKSGTSASLAISGLRSEDEADYYCAAWDRHSHGAVFGGGTKLTVLG
notes: Tagless disulfide-bridged human FabCys produced in HEK293 cells; also called MAB-7 Fab-Cys
With B5 as the binder, how does the EC50 [2] read?
Its EC50 is 6.1 nM.

And the EC50 [3]?
The EC50 was 3.7 nM.

And the Kd [4]?
The Kd was 1.3 nM.

What about the koff [4] of the same binder?
Its koff is 0.000627 s⁻¹.

What about the kon [4] of the same binder?
Its kon is 499000 M⁻¹ s⁻¹.

And the Kd [5]?
The Kd was 0.4 nM.

What about the koff [5] of the same binder?
The koff was 0.000158 s⁻¹.

And the kon [5]?
Its kon is 370000 M⁻¹ s⁻¹.

B6: MAB-13_h_FabCys (Fab, V domains shown)
VH: EVQLVESGGGLVQPGGSLRLSCAASGFTFRSHYMTWVRQAPGKGLEWVANIDYEGTRTYYAESVKGRFTISRDNAKNSLYLQMNSLRAEDTAVYYCARGYSAEFAHRSGLDVWGQGTLVTVSS
VL: QSVLTQPPSASGTPGQRVTISCSGSSSNIGINYVYWYQQLPGTAPKLLIYRNNQRPSGVPDRFSGSKSGTSASLAISGLRSEDEADYYCAAWDRHSHGAVFGGGTKLTVLG
notes: Tagless disulfide-bridged human FabCys produced in HEK293 cells; also called MAB-13 Fab-Cys
Which results are given for B6?
EC50 [2]: 8.3 nM; EC50 [3]: 5.2 nM; Kd [4]: 0.2 nM; koff [4]: 0.000134 s⁻¹; kon [4]: 705000 M⁻¹ s⁻¹; kon [5]: 413000 M⁻¹ s⁻¹; koff [8]: ≤ 5e-05 s⁻¹; Kd [7]: ≤ 0.1 nM

B7: MAB-9_h_FabCys (Fab, V domains shown)
VH: EVQLVESGGGLVQPGGSLRLSCAASGFTFRSHYMTWVRQAPGKGLEWVANIDYEGTRTYYAESVKGRFTISRDNAKNSLYLQMNSLRAEDTAVYYCARGYSAEFAHRSGLDVWGQGTLVTVSS
VL: QSVLTQPPSASGTPGQRVTISCSGSSSNIGINYVYWYQQLPGTAPKLLIYRNNIRPSGVPDRFSGSKSGTSASLAISGLRSEDEADYYCAAWDRHSHGAVFGGGTKLTVLG
notes: Tagless disulfide-bridged human FabCys produced in HEK293 cells; also called MAB-9 Fab-Cys
With B7 as the binder, how does the EC50 [2] read?
Its EC50 is 7.7 nM.

And the EC50 [3]?
Its EC50 is 4.7 nM.

And the Kd [4]?
The Kd was 0.2 nM.

And the koff [4]?
Its koff is 0.000122 s⁻¹.

And the kon [4]?
The kon was 724000 M⁻¹ s⁻¹.

And the kon [5]?
Its kon is 446000 M⁻¹ s⁻¹.

And the koff [8]?
The koff was at most 5e-05 s⁻¹.

What about the Kd [7] of the same binder?
Its Kd is at most 0.1 nM.

— patent publication US20230357398A1 (MorphoSys, published 2023)
